Assay results as given in IntAct's records for PubMed 17304241.

B1: Protein zyg-11 homolog B (Homo sapiens), Q9C0D3 (parent)
chain: MPEDQAGAAMEEASPYSLLDICLNFLTTHLEKFCSARQDGTLCLQEPGVFPQEVADRLLRTMAFHGLLNDGTVGIFRGNQMRLKRACIRKAKISAVAFRKAFCHHKLVELDATGVNADITITDIISGLGSNKWIQQNLQCLVLNSLTLSLEDPYERCFSRLSGLRALSITNVLFYNEDLAEVASLPRLESLDISNTSITDITALLACKDRLKSLTMHHLKCLKMTTTQILDVVRELKHLNHLDISDDKQFTSDIALRLLEQKDILPNLVSLDVSGRKHVTDKAVEAFIQQRPSMQFVGLLATDAGYSEFLTGEGHLKVSGEANETQIAEALKRYSERAFFVREALFHLFSLTHVMEKTKPEILKLVVTGMRNHPMNLPVQLAASACVFNLTKQDLAAGMPVRLLADVTHLLLKAMEHFPNHQQLQKNCLLSLCSDRILQDVPFNRFEAAKLVMQWLCNHEDQNMQRMAVAIISILAAKLSTEQTAQLGTELFIVRQLLQIVKQKTNQNSVDTTLKFTLSALWNLTDESPTTCRHFIENQGLELFMRVLESFPTESSIQQKVLGLLNNIAEVQELHSELMWKDFIDHISSLLHSVEVEVSYFAAGIIAHLISRGEQAWTLSRSQRNSLLDDLHSAILKWPTPECEMVAYRSFNPFFPLLGCFTTPGVQLWAVWAMQHVCSKNPSRYCSMLIEEGGLQHLYNIKDHEHTDPHVQQIAVAILDSLEKHIVRHGRPPPCKKQPQARLN

Variants of: B1
Settings: with eloc_human ELOC

Row | Variant | effect of a mutation on the interaction
1 | C22S | disrupting interaction
2 | L18S | disrupting interaction
